Results as given in paper PMC7203701 (ACS Omega, 2020).
Blank lines part the entries; values can stand above or below the molecule they belong to.

What was measured:
DmoB = biological target: T1, DmoB (Arthrobacter globiformis, UniProt H0QJX4); assay: fluorescence quenching titration of FMN with DmoB; assay type: binding
T1 sequence (H0QJX4 1-171): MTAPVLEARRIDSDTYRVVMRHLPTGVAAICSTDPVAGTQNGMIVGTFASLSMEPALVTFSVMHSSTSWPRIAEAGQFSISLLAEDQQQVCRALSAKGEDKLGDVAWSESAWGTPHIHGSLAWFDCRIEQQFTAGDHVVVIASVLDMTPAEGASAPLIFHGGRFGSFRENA

purified protein [1] = substrate: NC(=O)C1=CN([C@@H]2O[C@H](COP(=O)(O)OP(=O)(O)OC[C@H]3O[C@@H](n4cnc5c(N)ncnc54)[C@H](O)[C@@H]3O)[C@@H](O)[C@H]2O)C=CC1; assay: purified protein; settings: 50 μM FMN, 20 mM PIPES, pH 7.4, 25 °C
purified protein [2] = substrate: Cc1cc2nc3c(=O)[nH]c(=O)nc-3n(C[C@H](O)[C@H](O)[C@H](O)COP(=O)(O)OP(=O)(O)OC[C@H]3O[C@@H](n4cnc5c(N)ncnc54)[C@H](O)[C@@H]3O)c2cc1C; assay: purified protein; settings: 50 μM NADH, 20 mM PIPES, pH 7.4, 25 °C
purified protein [3] = substrate: Cc1cc2nc3c(=O)[nH]c(=O)nc-3n(C[C@H](O)[C@H](O)[C@H](O)CO)c2cc1C; assay: purified protein; settings: 50 μM NADH, 20 mM PIPES, pH 7.4, 25 °C
purified protein [4] = substrate: Cc1cc2nc3c(=O)[nH]c(=O)nc-3n(C[C@H](O)[C@H](O)[C@H](O)COP(=O)(O)O)c2cc1C; assay: purified protein; settings: 50 μM NADH, 20 mM PIPES, pH 7.4, 25 °C

Kd (DmoB): 1110 ± 710 nM
Molecule: Cc1cc2nc3c(=O)[nH]c(=O)nc-3n(C[C@H](O)[C@H](O)[C@H](O)COP(=O)(O)O)c2cc1C [FMN]

B1: DmoB (Arthrobacter globiformis NBRC 12137) (protein)
chain: T1 sequence (H0QJX4 1-171)
Km (purified protein [1]): 2.3 ± 0.5 µM
Vmax (purified protein [1]): 149 µmol/min/mg
kcat/Km (purified protein [1]): 2.09e+07 M⁻¹ s⁻¹
Km (purified protein [2]): 84 ± 12 µM
Vmax (purified protein [2]): 153 µmol/min/mg
kcat/Km (purified protein [2]): 583000 M⁻¹ s⁻¹
Km (purified protein [3]): 142 ± 7 µM
Vmax (purified protein [3]): 130 µmol/min/mg
kcat/Km (purified protein [3]): 283000 M⁻¹ s⁻¹
Km (purified protein [4]): 18 ± 5 µM
Vmax (purified protein [4]): 207 µmol/min/mg
kcat/Km (purified protein [4]): 3.72e+06 M⁻¹ s⁻¹
